In data set [1] the target is T1, human IAPP (hIAPP) (Homo sapiens, UniProt P10997).
T1 construct: This 37 amino acid polypeptide is co-secreted from pancreatic β-islet cells with insulin
T1 sequence (P10997 34-70 limits assumed): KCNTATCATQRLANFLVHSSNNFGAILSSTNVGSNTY
Description: Atomic force microscopy (AFM) of hIAPP fibril formation when mixed with IAPP peptides. Format: biochemical. To be noted: 37 μM hIAPP and 75 μM peptide, 37° C. with shaking for 40 minutes. Here is the method:
Samples labeled with hIAPP contained 40 μM hIAPP. The sample with pramlintide and hIAPP contained a 2:1 molar mixture (80 μM Pramlintide mixed with 40 μM hIAPP). The samples with raccoon IAPP and Pramlintide alone contained 40 μM of the indicated peptides. Each sample was incubated for 40 minutes at 37° C. with shaking; conditions known to promote hIAPP amyloid formation. All scans show raw data with no flattening and are […].
Each sample contained 37 μM hIAPP and 75 μM of the indicated peptide. Samples were incubated at 37° C. with shaking for 40 minutes. All scans show raw data with no flattening and are […].
Each sample contained 37 μM hIAPP mixed with 37 μM of the indicated peptide. Samples were incubated at 37° C. with shaking for 30 minutes before depositing each sample onto freshly cleaved mica.
Samples of hIAPP with or without animal IAPP were prepared as described in Example 1 and were then incubated with shaking at 37° C. for 40 minutes. After this incubation, 17 μL of each sample was deposited onto freshly cleaved mica. Samples were incubated for 5 minutes at room temperature before washing with 200 μL sterile water. After drying, the samples were scanned using an MFP-3D atomic force microscope (Asylum Research) set on A/C mode and a 240 m silicon cantilever (Olympus).
Many of the animal IAPP variants are known to likewise form fibrils and yield amyloid-plaques when scanned via AFM. […] This is in spite of the fact that all of these IAPP peptides (except polar bear IAPP) are known to aggregate and form fibrils themselves under these or similar conditions

Data set [2] addresses T1, human IAPP (hIAPP). Description: Thioflavin T binding assay of hIAPP aggregation when mixed with IAPP peptides. It is filed as biochemical. To be noted: for inhibition of hIAPP aggregation (summary statement): peptide mixed with hIAPP, no single assay (thioflavin T and AFM); for inhibition of hIAPP aggregation, thioflavin T binding: hIAPP mixed with peptide, incubated at 37° C. with shaking. The text has this:
Any of a number of assays known to the art can be used to evaluate the ability of IAPP peptides to inhibit hIAPP aggregation and/or protect cells from hIAPP toxicity. Thioflavin T (ThT) binding is one such technique for identifying amyloid formation in real time. Human IAPP is known to bind thioflavin T during aggregation and amyloid formation, and upon binding to amyloid fibrils ThT will give a strong fluorescence signal at approximately 482 nm when excited at 450 nm. ThT fluorescence correlates linearly with amyloid concentration in a sample and therefore can be used to determine the amount of aggregation in a sample. This technique can therefore be used for identifying substances with amyloid-inhibiting potential when such substances are mixed with human IAPP under conditions known to result in the formation of aggregates by hIAPP. Determining the extent of aggregation can also be determined using other techniques, such as Atomic Force Microscopy (AFM), which can provide information about particle dimensions, shape, and substructure with nanometer resolution. In the foregoing assays and others that can be used by one of skill in the art, significant inhibition can be determined using a t-test by measuring the difference between hIAPP and hIAPP combined with an IAPP peptide.
To identify IAPP peptides having inhibitory potential against hIAPP aggregation, the peptides shown in FIG. 1 from a number of species (cow, degu, guinea pig, horse, pig, rat, and sheep[…]) were mixed with hIAPP at a 2:1 molar ratio of animal peptide to hIAPP and incubated under conditions known to promote hIAPP aggregation and fibril formation. IAPP alone, or hIAPP mixed with an animal IAPP, was pipetted into a glass tube and the HFIP was removed under speed-vacuum. The resulting peptide sample was dissolved in 20 mM Tris buffer pH 7.4.
37 μM human IAPP was mixed with 75 μM of each indicated animal IAPP. Aggregation was initiated by incubating samples at 37° C. with shaking at 200 rpm for 40 minutes. At indicated time points, a 17 μL aliquot of each sample was mixed with 663 μL of 50.0 μM thioflavin T in 20 mM Tris buffer (pH 7.4). Thioflavin T fluorescence emission was then recorded at 488 nm using a Hitachi F-7000 fluorescence spectrophotometer.
After 40 minutes, these samples were monitored for their ability to bind thioflavin T (see FIG. 2) and their ability to form fibrils as identified with atomic force microscopy.
Human IAPP (37 μM) was mixed with each of the indicated Weddell seal variants (at 75 μM) and incubated for 30 minutes at 37° C. with shaking at 200 rpm. The Weddell seal IAPP peptides were likewise subjected to atomic force microscopy as described in Example 2.
Human IAPP was mixed with each of the indicated raccoon variants and incubated at 37° C. with shaking.
Human IAPP was mixed with each of the indicated chicken variants and incubated at 37° C. with shaking. […] However, it was able to protect cells in MTT assays, so it is believed to inhibit formation of toxic oligomers while having a lesser effect on inhibiting the formation of fibers (which are less toxic and less able to bind ThT).
Human IAPP was mixed with each of the indicated chicken variants and incubated at 37° C. with shaking.

For another data set, the system named is RIN-m cells. Description: MTT viability assay, peptide alone or mixed with hIAPP. Format: cell-based. To be noted: for rescue / protection of cells from hIAPP toxicity (words): hIAPP mixed with peptide 1:1, MTT assay. The text has this:
Cytoprotection can likewise be measured by a number of assays known to the art. One such assay is the MTT assay, which is a colorimetric assay for assessing cell metabolic activity. NAD(P)H-dependent cellular oxidoreductase enzymes in the cytosolic compartment of a cell reduces the tetrazolium dye MTT 3-(4,5-dimethylthiazol-2-yl)-2,5-diphenyltetrazolium bromide to an insoluble form, formazan, which has a purple color. The reduction of MTT (and other tetrazolium dyes) depends on the cellular metabolic activity, so a loss of color in the course of performing an MTT assay indicates low metabolic activity, and is thus an indicator of cell damage and death.
To test cell viability, a MTT colorimetric assay measuring the conversion of yellow tetrazolium salt into purple formazan crystal catalyzed by a mitochondrial reductase was used. Cell viability studies were performed using RIN-m cells (ATCC, CRL-2057). An equal number of RIN-m cells were plated in triplicate and incubated overnight in 96-well plates. The next day, fresh RPMI-1640 with phenol red supplemented with 10% FBS was added to cells. Hexafluoroisopropanol (HFIP) was removed from each individual human and animal IAPP using a centrivap concentrator (LabOnco). All IAPP peptide samples were re-suspended in RPMI-1640 with 10% FBS. To ensure even re-suspension, each resulting IAPP-containing vial was scraped with a pipette tip six times and vortexed (Vortex Genie Mixer) for 15 seconds. The whole process, from drying each IAPP peptide to adding each IAPP peptide to the cells was uniform to ensure that each sample was incubated for an equal amount of time with each IAPP peptide. IAPP peptides were added to cells and incubated for 46 hours at 37° C. Post-incubation, the media in each well was replaced by fresh DMEM/F-12 without phenol red. MTT (3-(4,5-dimethyl-2-thiazolyl)-2,5-diphenyl-tetrazolium bromide) was added into each well and incubated at 37° C. for 2 hours. Formazan crystals, formed on the bottom of the wells, were re-suspended in solubilization buffer (20% SDS and 50% dimethylformamide). The absorbance in each well was taken at 570 nm using a Multiskan FC Microplate Photometer (Thermos Fisher Scientific). Media were obtained from ATCC. All incubations took place in a water jacketed incubator in 5% carbon dioxide at 37° C. (Shell Lab).
The MTT viability assay was used to measure cell viability of RIN-m cells upon addition of hIAPP alone, the addition of each animal IAPP peptide alone, and hIAPP mixed with each animal IAPP peptide (results shown in FIG. 5). RIN-m cells alone were used as a control and set to 100% cell viability. […] Addition of raccoon IAPP to hIAPP increased the cell viability from 55% to an average of 72% (p=0.005705). Addition of chicken IAPP variant to hIAPP increased cell viability to an average of 76% (p=0.013556).
(In general: Tetrazolium dyes change colour on reduction, which living cells bring about.)

Where a SMILES comes first, the peptide text is derived from it. Bridges are numbered along the chain shown (N, C = ends). Where no end group is shown, it is not given here.

Take `CC[C@H](C)[C@H](NC(=O)[C@H](C)NC(=O)CNC(=O)[C@H](CC(C)C)NC(=O)[C@H](CC(N)=O)NC(=O)[C@H](CC(N)=O)NC(=O)[C@H](CO)NC(=O)[C@H](CO)NC(=O)[C@H](CCCNC(=N)N)NC(=O)[C@@H](NC(=O)[C@H](CC(C)C)NC(=O)[C@H](Cc1ccccc1)NC(=O)[C@H](CC(N)=O)NC(=O)[C@H](C)NC(=O)[C@H](CC(C)C)NC(=O)[C@H](CCCNC(=N)N)NC(=O)[C@H](CCC(N)=O)NC(=O)[C@@H](NC(=O)[C@H](C)NC(=O)[C@@H]1CSSC[C@H](NC(=O)[C@@H](N)CCCCN)C(=O)N[C@@H](CC(N)=O)C(=O)N[C@@H]([C@@H](C)O)C(=O)N[C@@H](C)C(=O)N[C@@H]([C@@H](C)O)C(=O)N1)[C@@H](C)O)[C@@H](C)CC)C(=O)N[C@@H](CC(C)C)C(=O)N[C@@H](CO)C(=O)N1CCC[C@H]1C(=O)N[C@H](C(=O)N[C@@H](CC(N)=O)C(=O)N[C@H](C(=O)NCC(=O)N[C@@H](CO)C(=O)N[C@@H](CC(N)=O)C(=O)N[C@H](C(=O)N[C@@H](Cc1ccc(O)cc1)C(N)=O)[C@@H](C)O)C(C)C)[C@@H](C)O` [cat IAPP] (H-KCNTATCATQRLANFLIRSSNNLGAILSPTNVGSNTY-NH2; disulfide 2-7 (inferred); N-terminus and C-terminus assumed): the “inhibition of hIAPP fibril formation, AFM” value (from here on “inhibition … AFM”) at human IAPP (hIAPP) [1] was “significant ability to prevent fiber formation”. Also, the “inhibition of hIAPP aggregation (summary statement)” value (shortened to “inhibition … (summary statement)”) at human IAPP (hIAPP) [2] is reported as “able to inhibit such aggregation”.
For the molecule “KCNTATCVTQRLANFLLRSSNNLGAIL (Procyon lotor truncation) [R1-27]”, in the data set on RIN-m cells, the “rescue / protection of cells from hIAPP toxicity (words)” value (“rescue / protection of cells” below) is “rescued cells from hIAPP-induced cytotoxicity”. Also, in the data set with human IAPP (hIAPP) [1], the “inhibition … AFM” value was “did”. Further, the “inhibition of hIAPP aggregation, thioflavin T binding” value (“inhibition … thioflavin T binding” below) in the data set with human IAPP (hIAPP) [2] was “inhibited hIAPP aggregation”.
Regarding “KCNTATCVTQRLANFLLRSSNNLGAILSP (Procyon lotor truncation) [R1-29]”, the “rescue / protection of cells” value with RIN-m cells is recorded as “rescued cells from hIAPP-induced cytotoxicity”. In addition, the “inhibition … AFM” value with human IAPP (hIAPP) [1] was “did”. Moreover, the “inhibition … thioflavin T binding” value in the data set with human IAPP (hIAPP) [2] is “inhibited hIAPP aggregation”.
Turning to “cow IAPP: naturally occurring IAPP peptide of cow origin (FIG. 1) (CGTATCETQRLANFLAPSSNKLGAIFSPTKMGSNTY; ends and bridges not checked; cysteine pairing not given here)”, the “inhibition … AFM” value with human IAPP (hIAPP) [1] is on record as “either had no effect on hIAPP fibril formation or appeared to promote fibrils with hIAPP”. The “inhibition … (summary statement)” value with human IAPP (hIAPP) [2] is recorded as “failed to inhibit the aggregation of human IAPP”.
As to “KCNTATCATQRLANFLVHSSNNLGAILSPTNVGSNTY (KTATCATQRLANFLVHSSNNLGAILSPTNVGSNTY; Leptonychotes weddellii mutation) [WS_LP]”, the “toxicity of peptide to cells” value with RIN-m cells (peptide alone, MTT assay, pancreatic (RIN-m) cells) is “toxic to cells, with and without addition of hIAPP”. Moreover, the “inhibition … AFM” value in the data set with human IAPP (hIAPP) [1] is “strong inhibitors of hIAPP fiber formation”. In addition, in the data set with human IAPP (hIAPP) [2], the “inhibition … thioflavin T binding” value is on record as “inhibited hIAPP aggregation”.
With “KCNTATCATQRLANFLVRSGNLFGAILSPTNVGSNTY (listed as Ursus maritimus) [polar bear IAPP]”, the “rescue / protection of cells” value in the data set on RIN-m cells is reported as “not capable of protecting RIN-m cells from the toxic effects of hIAPP”. For the same molecule, in the data set with human IAPP (hIAPP) [1], the “inhibition … AFM” value was “significant ability to prevent fiber formation”. The “inhibition … (summary statement)” value with human IAPP (hIAPP) [2] was “able to inhibit such aggregation”.
On to “guinea pig IAPP: naturally occurring IAPP peptide of guinea pig origin (FIG. 1) (KCNTATCATQRLTNFLVRSSHNLGAALLPTDVGSNTY; ends and bridges not checked; cysteine pairing not given here; UniProt P12966 37-73, looked up)”, for which the “inhibition … AFM” value in the data set with human IAPP (hIAPP) [1] was “either had no effect on hIAPP fibril formation or appeared to promote fibrils with hIAPP”. Also, the “inhibition … (summary statement)” value with human IAPP (hIAPP) [2] was “failed to inhibit the aggregation of human IAPP”.
The like results for “KCNTATCATQRLANFLVRTSNNLGAILSPTNVGSNTY (ends and bridges not checked; cysteine pairing not given here) [dog IAPP]” were, in that order, “significant ability to prevent fiber formation” and “able to inhibit such aggregation”.
The like results for “degu IAPP: naturally occurring IAPP peptide of degu origin (FIG. 1) (KCNTATCATQRLTNFLVRSSHNLGAALPPTKVGSNTY; ends and bridges not checked; cysteine pairing not given here; UniProt P22889 37-73, looked up)” were, in that order, “either had no effect on hIAPP fibril formation or appeared to promote fibrils with hIAPP” and “failed to inhibit the aggregation of human IAPP”.

Values taken from patent publication US12522635B2, “Amyloid peptide variants” (Loyola Marymount University, priority 2019, dated 2026).
